Positions count from the first letter of the chain named.
T1: wild-type hVEGF121 (human, UniProt P15692-9 27-147)
T1 sequence (looked up): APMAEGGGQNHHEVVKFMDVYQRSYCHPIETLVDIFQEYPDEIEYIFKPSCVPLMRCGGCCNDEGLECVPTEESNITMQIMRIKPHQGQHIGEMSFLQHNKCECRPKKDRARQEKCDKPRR

T2: hVEGF121-M81A (human, UniProt P15692-9 27-147)
T2 construct: Transiently expressed in CHO-K1 cells; culture supernatant used
T2 sequence (looked up): T1 sequence (looked up) with M81A

T3: hVEGF121-G88S (human, UniProt P15692-9 27-147, G88S)
T3 construct: Transiently expressed in CHO-K1 cells; culture supernatant used
T3 sequence (looked up): T1 sequence (looked up) with G88S

T4: hVEGF121-Q89A (human, UniProt P15692-9 27-147, Q89A)
T4 construct: Transiently expressed in CHO-K1 cells; culture supernatant used
T4 sequence (looked up): T1 sequence (looked up) with Q89A

T5: hVEGF121-G92A (human, UniProt P15692-9 27-147, G92A)
T5 construct: Transiently expressed in CHO-K1 cells; culture supernatant used
T5 sequence (looked up): T1 sequence (looked up) with G92A

T6: murine VEGF165 (murine, UniProt Q00731-2 27-190)
T6 construct: also called mVEGF165; rMu-VEGF165
T6 sequence (looked up): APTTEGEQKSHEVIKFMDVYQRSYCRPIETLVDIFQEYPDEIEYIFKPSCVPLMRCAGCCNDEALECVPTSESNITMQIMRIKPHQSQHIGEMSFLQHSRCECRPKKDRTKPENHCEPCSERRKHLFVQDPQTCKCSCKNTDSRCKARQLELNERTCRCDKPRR

B1: XPA.10.064 IgG2 (antibody, V domains shown)
VH: EVQLVQSGAEVRKPGASVKVSCKASGYSFTGHYIHWVRQAPGQGLEWMGWINPYSGGTNFPREFQGRVTMTRDTSVNTVYMELTRLTSDDTSVYYCARDHRIVGGLDYWGQGTLVTVSS
VL: SYVLTQPPSASGTPGQRVTISCSGSSSNIGINYVYWYQQLPGTAPKLLIYRNDQRPSGVPDRFSGSKSGTSASLAISGLRSEDEADYYCATWDDSLSGVVFGGGTKVTVL
notes: Converted to IgG with gamma-2 heavy chain constant region; Expressed in 293E cells; also called parental XPA.10.064; VPA.10.064
B2: XPA.10.072 IgG2 (antibody, V domains shown)
VH: B1 VH with E1R, V2L, V37A
VL: B1 VL with S1Q, Y2S, I29L, I31S, Y33F, D53H, T91S, S97R, G98V, V107L
notes: IgG2 (gamma-2 constant region); also called XPA.072; VPA.10.072

What was measured:
[1] = target: T7, human VEGF165 (human, UniProt P15692 207-395); experiment: cell-based or functional assay
[2] = target: T7, human VEGF165; experiment: cell-based or functional assay; remark: listed apart in the source
[3] = target: T7, human VEGF165; experiment: cell-based or functional assay; remark: listed apart in the source
Target sequence in this assay (P15692 other isoform, or with tags, fused parts or gaps limits assumed): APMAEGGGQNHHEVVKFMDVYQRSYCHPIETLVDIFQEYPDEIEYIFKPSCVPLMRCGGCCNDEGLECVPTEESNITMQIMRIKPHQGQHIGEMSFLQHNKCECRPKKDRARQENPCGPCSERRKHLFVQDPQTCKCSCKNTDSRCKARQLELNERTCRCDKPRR

[4] = target: T7, human VEGF165; experiment: sandwich ELISA, antibody coated
Protocol: (§1) Mutants were transiently expressed in CHO-K1 cells, and cell supernatants were collected for binding analysis by ELISA.
(§2) The plate was blocked with 30% ChemiBlock™ reagent (Millipore) in PBS for one hour at room temperature, and 30, 60, or 100 μl of CHO-K1 culture supernatant for each mutant, or 1 μg/ml of wild-type hVEGF₁₂₁, recombinant hVEGF₁₆₅, or recombinant mVEGF₁₆₅, was added to appropriate wells. After one hour of incubation, the plate was washed and incubated with a biotinylated goat polyclonal anti-VEGF antibody for one hour at room temperature. Detection was performed with HRP-conjugated streptavidin, followed by TMB chromogenic substrate (Calbiochem) using manufacturer protocol.

[5] = target: T1, wild-type hVEGF121; experiment: sandwich ELISA, antibody coated
Protocol: as §1, §2

[6] = target: T2, hVEGF121-M81A; experiment: sandwich ELISA, antibody coated
Protocol: as §1, §2

[7] = target: T3, hVEGF121-G88S; experiment: sandwich ELISA, antibody coated
Protocol: as §1, §2

[8] = target: T4, hVEGF121-Q89A; experiment: sandwich ELISA, antibody coated
Protocol: as §1, §2

[9] = target: T5, hVEGF121-G92A; experiment: sandwich ELISA, antibody coated
Protocol: as §1, §2

[10] = target: T6, murine VEGF165; experiment: Biacore; IgG2, Biacore: weak binding, KD >100 nM
[11] = target: T3, hVEGF121-G88S; experiment: sandwich ELISA, antibody coated, CHO-K1 supernatant
[12] = target: T6, murine VEGF165; experiment: Biacore 2000, mVEGF165 amine-coupled on C1 chip, antibody injected
Protocol: (§3) The VEGF binding affinity of these IgGs was tested on a Biacore 2000® by injecting the antibodies over a very low density antigen surface. Human or murine VEGF₁₆₅ was immobilized via standard amine coupling methods to flow cells on a C1 (planar carboxy surface) chip. Approximately 85 RU of each antigen was immobilized and a reference flow cell was activated and blocked. Antibodies were injected over the chip surface for 400 seconds at two different concentrations, after which dissociation was monitored. Data was analyzed by Scrubber® using double referencing and fitting with a 1:1 interaction. Regenerations were performed with 90 mM HCl with 500 mM NaCl.

[13] = target: T7, human VEGF165; experiment: Biacore 2000, IgG2 captured on Protein A/G, hVEGF165 injected, 1:1 fit
Protocol: (§4) Dilution and running buffer for these experiments was HBS-EP (Biacore) with 1:50 dilution of Chemiblocker® (Chemicon). […] Antibody concentrations were approximately 0.5 μg/ml. hVEGF₁₆₅ expressed from sf21 cells was injected over five minutes at 30 μl/minute using the Kinject feature with 15 minute dissociation over fc1 and 2. […] Regenerations were performed with two injections of 100 mM HCl at 50 μl/minutes for twelve seconds each. Data was processed in Scrubber2 and fit by a 1:1 Langmuir interaction model after double referencing of the control flow cell and blank injections.

[14] = target: T7, human VEGF165; experiment: Biacore competition, inhibition of hVEGF165 binding to immobilized VEGF-R1
Protocol: (§5) VEGF receptor (R&D Systems) was immobilized on the CM5 chip at a density of approximately […] via amine coupling (Biacore). VEGF-R2 was immobilized on fc2 and VEGF-R1 was immobilized on fc4. Flow cells 1 and 3 served as references, and were activated and blocked in the same manner as the receptor immobilized flow cells. […] Samples were incubated for at least one hour prior to initiation of the Biacore analysis run. […] Samples were injected at 10 μl/minute for 1.5 minutes over all flow cells.
(§6) For data analysis, the slope of a linear portion of association (30 seconds to one minute) of the association phase was determined with a linear fit. […] Data was plotted in GraphPad Prism and fit with a sigmoidal dose response curve to calculate the EC₅₀.

[15] = target: T7, human VEGF165; experiment: Biacore competition, inhibition of hVEGF165 binding to immobilized VEGF-R2
Protocol: as §5, §6

[16] = target: T7, human VEGF165; experiment: Biacore 2000, hVEGF165 amine-coupled on C1 chip, antibody injected, 1:1 fit
Protocol: as §3
Target sequence in this assay (P15692 other isoform, or with tags, fused parts or gaps limits assumed): as above

[17] = target: T7, human VEGF165; experiment: Biacore, IgG2 (summary table); lower end of the range of IgG2 Biacore results
Protocol: as §4

[18] = target: T6, murine VEGF165; experiment: sandwich ELISA, antibody coated; epitope ELISA, fold over CHO background: at background, no binding seen
Protocol: as §2

[19] = target: T7, human VEGF165; experiment: Biacore, IgG2 (summary table)
Protocol: as §4

Binder	HPP: sf21-hVEGF165, IgG2 (IC50) [1]	Inhibition of HUVEC proliferation, EC50 (µg/ml), HEK 293 hVEGF165 [2]	Raw data (ELISA signal) [4]	fold binding over CHO background [4]	Raw data (ELISA signal) [5]	fold binding over CHO background [5]	Raw data (ELISA signal) [6]	fold binding over CHO background [6]	Raw data (ELISA signal) [7]	fold binding over CHO background [7]	Raw data (ELISA signal) [8]	fold binding over CHO background [8]	Raw data (ELISA signal) [9]	fold binding over CHO background [9]	Kd [10]	binding result [11]	Kd [13]	koff [13]	kon [13]	EC50 [14]	further results
B1	0.15 µg/mL	0.66 µg/mL	2.09	23 fold	2.65	29.1 fold	0.868	9.5 fold	0.0778	0.9 fold	0.319	3.5 fold	2.08	22.8 fold	> 100 nM	no binding	1.24 nM	0.000286 s⁻¹	230000 M⁻¹ s⁻¹	0.159 µg/mL	HUVEC proliferation, geometric mean IC50 [3]: 1.32 nM; Kd [12]: 197 nM; EC50 [15]: 0.129 µg/mL; Kd [16]: 1.71 nM; koff [16]: 0.000335 s⁻¹; kon [16]: 193000 M⁻¹ s⁻¹; Kd [17]: 1.24 to 1.71 nM; fold binding over CHO background [18]: 0.7 fold
B2	0.24 µg/mL	0.68 µg/mL	2.66	29.2 fold	2.9	31.8 fold	1.22	13.4 fold	0.0951	1 fold	0.296	3.3 fold	2.78	30.5 fold	> 100 nM	no binding	1.66 nM	0.000279 s⁻¹	168000 M⁻¹ s⁻¹	0.121 µg/mL	HUVEC Proliferation Potency (HPP): HEK293-hVEGF165, IgG2 (IC50) [1]: 0.68 µg/mL; Kd [19]: 1.66 to 1.7 nM; EC50 [15]: 0.173 µg/mL; fold binding over CHO background [18]: 1.1 fold

Source: patent US20110097340A1 (SCHERING, published 2011)
